Laboratory results as given in patent US20160264664A1 (Ablynx, published 2016).

B1: P2X7PMP5B1 (VHH)
VHH: EVQLVESGGGLVQAGGSLRLSCAASERTYSMGWFRQAPGKEREFVAGSGWDGIPTRYADSVKGRFTISRDNAKNTVSLQMSGLKPEDTAIYYCATGTSVYHYQYRGQGTQVTVSS
notes: family 3; on phage or c-myc/His6-tagged in assays
B2: P2X7PMP7F3 (VHH)
VHH: EVQLVESRGGLVQAGGSLRLSCAASERTYSMGWFRQAPGKEREFVAGSGWDGIPTRYADSVKSRFTISRDNAKNTVSLQMSGLKPEDTAIYYCATGTSVYHYQYWGQGTQVTVSS
notes: as for B1
B3: P2X7PMP11A1 (VHH)
VHH: EVQLVESGGGLVQAGGSLRLSCAASERTYSVGWFRQAPGKEREFVAGSGWDGTPTRYADSVKGRFTISRDNAKNTVSLQMSGLKPEDTAIYYCATGTSVYHYQYWGQGTQVTVSS
notes: as for B1
B4: P2X7PMP11D3 (VHH)
VHH: EVQLVESGGGLVQPGGSLRLSCAASERTYSMGWFRQAPGKEREFVAGSGWDGIPTRYADSVKGRFTISRDNAKNTVSLQMSGLKPEDTAIYYCATGTSVYHYQYWGQGTQVTVSS
notes: as for B1
B5: P2X7PMP11G1 (VHH)
VHH: EVQLVESGGGLVQAGGSLRLSCAASERTYSMGWFRRAPGKEREFVAGSGWDGIPTRYADSVKGRFTISRDNAKNTVSLQMSGLKPEDTAIYYCATGTSVYHYQYWGQGTQVTVSS
notes: as for B1
B6: P2X7PMP7F1 (VHH)
VHH: EVQLVESGGGLVQAGGSLRLSCAASERTYSMGWFRQAPGKEREFVAGSGWDGIPTRYADSVKGRFTISRDNAKSTVSLQMSGLKPEDTAIYYCATGTSVYHYQYWGQGTQVTVSS
notes: as for B1
B7: P2X7PMP13B2 (VHH)
VHH: EVQLVESGGGLVQAGGSLRLSCAASERTYSMGWFRQAPGKEREFVAGSGWDGIPTRYADSVKGRFTISRDNAKNAVSLQMSGLKPEDTAIYYCATGTSVYHYQYWGQGTQVTVSS
notes: as for B1
B8: P2X7PMP15C7 (VHH)
VHH: EMQLVESGGGWVQAGGSLRLSCASSGSIFSAGAMGWYRQPAGKQRELVADITLGGSTNYADSVKGRFTISRDNAKNAVFLQMNSLKPEDTAVYYCNGLINTFARKIPRYAWGQGTQVTVSS
notes: family 28; on phage or c-myc/His6-tagged in assays
B9: P2X7PMP19H4 (VHH)
VHH: EVQLVESGGGLVQAGGSLRLSCVASGRTLSTAVMGWFRQAPGKERGLVAMISWSGSMTYYAKSVKGRFTISRDNAKNTMYLQMNSLKPEDTAVYYCAADMGGGPPDGDAMPRLSSGMDYWGKGTLVTVSS
notes: family 26; on phage or c-myc/His6-tagged in assays
B10: P2X7PMP7F9 (VHH)
VHH: EVQLVESGGGLVQAGASLRVSCAASARTGSYTMGWFRQAPGKEREFVSTISWNGASTVYADSVKGRFTISRDNAKNTVSLQMNSLKPEDTAVYYCAGSISSYSSRWQDDYEYWGQGTQVTVSS
notes: family 9; on phage or c-myc/His6-tagged in assays
B11: P2X7PMP7D8 (VHH)
VHH: EVQLVESGGGLVQPGGSLRLSCAASGLTLEYYNIGWFRQAPGKEREGVACIDWTEGSTFYVDSVKGRFTISTDNAKNTVYLHMNSLEPEDTAVYYCAAGWGRVITVQHMCADRSLFTSWGQGTQVTVSS
notes: family 13; on phage or c-myc/His6-tagged in assays
B12: P2X7PMP18D12 (VHH)
VHH: EVQLVESGGDLVQAGGSLKLSCVVSGVTFDDGTIGWFRQAPGKEREGIACISRVDGTTYYRDSVKGRFTVSSDSAKTTVNLQMNSLKPEDTAVYYCAADYASLCTIETGYGSLYDYWGRGTQVTVSS
notes: family 6; on phage or c-myc/His6-tagged in assays
B13: P2X7PMP4B3 (VHH)
VHH: EVQLVESGGDLVQAGGSLKLSCVVSGVTFDDGTIGWFRQAPGKEREGIACISRVDGTTYYRDSVKGRFTVSSDSAKTTVNLQMNSLKPEDTAVYYCAADYASLCTIETGYGSLYDYWGKGTQVTVSS
notes: as for B12
B14: P2X7PMP16F5 (VHH)
VHH: EVQLVESGGGLVQAGGSLRLSCAASGPTTFGRYTMGWFRQAPGREREFVAAISWIGGRTYYVDVVKGRFTISRDNAKKMVYLQMNSLKPDDTAVYHCAAAFQALGSPREYDYWGQGTQVTVSS
notes: family 29; on phage or c-myc/His6-tagged in assays
B15: P2X7PMP16G3 (VHH)
VHH: EVQLVESGGGLVQAGGSLRLSCAASGNDFARFSIDAMGWYRQAPGKQRELVATVTEDGTKNYADSVKGRATISRDDANNSMYLEMNTLKPEDTAVYYCKMGGLIDGAAPYEFWGRGTQVTVSS
notes: family 27; on phage or c-myc/His6-tagged in assays
B16: P2X7PMP20H9 (VHH)
VHH: EVQLVESGGRVMQTGGSLRLSCAASGHTFNDYSMGWFRQAPGKELEFLAGINWSGMSTWYADSVKDRFTISRDNNKNTVFLQMNSLEPGDTAVYYCAARQWISTIILTAPSQYDYWGQGTQVTVSS
notes: family 24; on phage or c-myc/His6-tagged in assays
B17: P2X7PMP4G4 (VHH)
VHH: EVQLMESGGGLVQAGGPLRLSCAASGRTVSDYGMGWFRQAPGKEREFVASINWSGTYTRYIDSVEGRFTISRDNTENTLYLQMNNLKAEDTAVYYCAYFLGPNWYSDYGRPSSYDFYGQGTQVTVSS
notes: family 4; on phage or c-myc/His6-tagged in assays
B18: P2X7PMP20B8 (VHH)
VHH: EVQLVESGGGLVQAGGSLRLSCAASGRTVSDYGMGWFRQAPGKECEFVASINWSGTYTRYIDSVEGRFTISRDNTENTLYLQMNNLKAEDTAVYYCAYFLGPNWYSDYGRPSSYDFYGQGTQVTVSS
notes: as for B17
B19: P2X7PMP19A7 (VHH)
VHH: KVQLVESGGGLVQAGGSLRLSCAASGRTVSDYGMGWFRQAPGKLREFVASINWSGIYTRYIDSVEGRFTISRDNTKNTLYLQMNNLRAEDTAVYYCAYFLGPNWYSNYGRPSSYDFYGQGTQVTVSS
notes: as for B17
B20: P2X7PMP19D12 (VHH)
VHH: EVQLVESGGGLVQAGGSLRLSCAASGRTVSDYGMGWFRQAPGKLREFVASINWSGIYTRYIDSVEGRFTISRDNTKNTLYLQMNNLKAEDTAVYYCAYFLGPNWYSNYGRPSSYGFYGQGTQVTVSS
notes: as for B17
B21: P2X7PMP13F4 (VHH)
VHH: EVQLVESGGGLVQSGGSLRLSCAGSGFSYYIIGWFRQAPGKEREEVSCIRVTDGSTYHTNSVKGRFTMSRDNAENTVYLQMNSLKPEDTAVYSCATECQRWAYPNRIGARGQGTQVTVSS
notes: family 12; on phage or c-myc/His6-tagged in assays
B22: P2X7PMP13E9 (VHH)
VHH: EVQLVESGGGLVQPGESLRLSCTASRFDLDYYDIAWFRQAPGKEREGVSCSFTNDGSTYYADSVKGRFTMSRNNDHRTVYLQMTSLQPEDTAVYTCAVGPLTRRRQCVPGDFSMDFWGEGTLVTVSS
notes: family 22; on phage or c-myc/His6-tagged in assays
B23: P2X7PMP7E8 (VHH)
VHH: EVQLVESGGGLVQAGGSLRLSCAASGRTFSSSPVGWFRQAPGKERDFVATISWNGVDTHYLDSVKGRFTISRDNALNTVHLQMHILKPEDTALYYCAASTSGSAYLPYRVYQYDSWGQGTQVTVSS
notes: family 8; on phage or c-myc/His6-tagged in assays
B24: P2X7PMP7F5 (VHH)
VHH: EVQLVESGGGLVQAGGSLRLSCAASGRTFSSSPVGWFRQAPGKERDFVATISWNGVDTHYLDSVKGRFTISRDNALNTVHLQMHILKPEDTALYYCAASTSGSAYLPYRVHQYDSWGQGTQVTVSS
notes: as for B23
B25: P2X7PMP6D7 (VHH)
VHH: EVQLVESGGGLVQAGGSLRLSCAASGRTFSSLAMGWLRQAPGKEREFVSGISRGGTSTYYADSVKGRLTISRDNAKNTMYLQMNSLKPEDTAVYYCAGSPVLSIVLDTRGLEYWGQGTQVTVSS
notes: family 7; on phage or c-myc/His6-tagged in assays

Each binder was assayed against T1, mouse P2X7 (mouse, UniProt Q9Z1M0 1-595) (assay: Table A-1 'P2X7 function'; screening on mP2X7-expressing cells).
T1 construct: on transfected CHO or Hek293 cells, or endogenous on Yac-1 cells; also called mP2X7; mouse purinoceptor P2X7
T1 sequence: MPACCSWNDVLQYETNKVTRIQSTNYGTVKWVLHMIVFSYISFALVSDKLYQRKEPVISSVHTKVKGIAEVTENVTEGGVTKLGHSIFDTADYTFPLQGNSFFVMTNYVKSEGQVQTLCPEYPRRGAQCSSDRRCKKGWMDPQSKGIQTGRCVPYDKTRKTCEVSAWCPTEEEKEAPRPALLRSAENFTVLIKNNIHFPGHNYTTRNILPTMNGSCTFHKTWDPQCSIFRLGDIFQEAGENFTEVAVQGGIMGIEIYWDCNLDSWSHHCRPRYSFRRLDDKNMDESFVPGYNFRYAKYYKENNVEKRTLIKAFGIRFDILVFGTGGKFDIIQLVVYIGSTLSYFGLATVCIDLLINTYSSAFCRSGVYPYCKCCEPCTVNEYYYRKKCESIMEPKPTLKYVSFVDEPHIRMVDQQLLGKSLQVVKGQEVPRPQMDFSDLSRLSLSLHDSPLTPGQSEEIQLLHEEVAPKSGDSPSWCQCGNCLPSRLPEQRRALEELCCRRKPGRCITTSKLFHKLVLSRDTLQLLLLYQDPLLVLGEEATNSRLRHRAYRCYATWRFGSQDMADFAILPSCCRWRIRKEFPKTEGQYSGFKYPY

Question: Does B1 bind?
Answer: binds

Question: Does B2 bind?
Answer: binds

Question: Does B3 bind?
Answer: binds

Question: Does B4 bind?
Answer: binds

Question: Does B5 bind?
Answer: binds

Question: Does B6 bind?
Answer: binds

Question: Does B7 bind?
Answer: binds

Question: Does B8 bind?
Answer: binds

Question: Does B9 bind?
Answer: binds

Question: Does B10 bind?
Answer: binds

Question: Does B11 bind?
Answer: binds

Question: Does B12 bind?
Answer: binds

Question: Does B13 bind?
Answer: binds

Question: Does B14 bind?
Answer: binds

Question: Does B15 bind?
Answer: binds

Question: Does B16 bind?
Answer: binds

What follows are binders tested against T1, mouse P2X7 (assay: phage ELISA on fixed mP2X7-CHO vs untransfected CHO cells (minimally 2-fold)).
Procedure: Sub-confluent cells were rinsed with PBS and fixed using 4% paraformaldehyde in PBS for 10 minutes at RT. Fixed cells were washed three times with PBS, and blocked with 2% BSA in PBS for 2 hours. Following blocking, 10-fold diluted culture supernatant containing phage was added and incubated for 1 hour. Cell-bound phage was detected via mouse anti-M13-HRP-conjugate (GE Healthcare, Cat nr. E2886). Rat mAb Hano43 was used as positive control.

Question: Does B17 bind?
Answer: binds

Question: Does B18 bind?
Answer: binds

Question: Does B19 bind?
Answer: binds

Question: Does B20 bind?
Answer: binds

Question: Does B21 bind?
Answer: binds

Question: Does B22 bind?
Answer: binds

Question: Does B23 bind?
Answer: binds

Question: Does B24 bind?
Answer: binds

Question: Does B25 bind?
Answer: binds
